Consider 4 variants from IntAct's records for PubMed 16249186.

First the molecules themselves.
B1: Retinoblastoma-associated protein (Homo sapiens), P06400 (parent)
chain: MPPKTPRKTAATAAAAAAEPPAPPPPPPPEEDPEQDSGPEDLPLVRLEFEETEEPDFTALCQKLKIPDHVRERAWLTWEKVSSVDGVLGGYIQKKKELWGICIFIAAVDLDEMSFTFTELQKNIEISVHKFFNLLKEIDTSTKVDNAMSRLLKKYDVLFALFSKLERTCELIYLTQPSSSISTEINSALVLKVSWITFLLAKGEVLQMEDDLVISFQLMLCVLDYFIKLSPPMLLKEPYKTAVIPINGSPRTPRRGQNRSARIAKQLENDTRIIEVLCKEHECNIDEVKNVYFKNFIPFMNSLGLVTSNGLPEVENLSKRYEEIYLKNKDLDARLFLDHDKTLQTDSIDSFETQRTPRKSNLDEEVNVIPPHTPVRTVMNTIQQLMMILNSASDQPSENLISYFNNCTVNPKESILKRVKDIGYIFKEKFAKAVGQGCVEIGSQRYKLGVRLYYRVMESMLKSEEERLSIQNFSKLLNDNIFHMSLLACALEVVMATYSRSTSQNLDSGTDLSFPWILNVLNLKAFDFYKVIESFIKAEGNLTREMIKHLERCEHRIMESLAWLSDSPLFDLIKQSKDREGPTDHLESACPLNLPLQNNHTAADMYLSPVRSPKKKGSTTRVNSTANAETQATSAFQTQKPLKSTSLSLFYKKVYRLAYLRLNTLCERLLSEHPELEHIIWTLFQHTLQNEYELMRDRHLDQIMMCSMYGICKVKNIDLKFKIIVTAYKDLPHAVQETFKRVLIKEEEYDSIIVFYNSVFMQRLKTNILQYASTRPPTLSPIPHIPRSPYKFPSSPLRIPGGNIYISPLKSPYKISEGLPTPTKMTPRSRILVSIGESFGTSEKFQKINQMVCNSDRVLKRSAEGSNPPKPLKKLRFDIEGSDEADGSKHLPGESKFQQKLAEMTSTRTRMQKQKMNDSMDTSNKEEK
partner: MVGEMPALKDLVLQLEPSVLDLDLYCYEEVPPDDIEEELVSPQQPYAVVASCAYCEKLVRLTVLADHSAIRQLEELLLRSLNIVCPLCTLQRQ
B2: Protein E7 (Human papillomavirus type 1a), P06465 (parent)
chain: B1 partner
partner: B1 chain
B3: Protein E7 (Human papillomavirus type 1a), P06465 (parent)
chain: B1 partner

One experiment covers variants of B1. The conditions noted are these: with ve7_hpv1 E7, P06465.
In the case of K810E;K814E;K824E, the “effect of a mutation on the interaction” value is recorded as “disrupting interaction”.

Variants of B2 are the subject of another experiment. The conditions noted are these: with rb_human RB1, P06400.
As for MVGEMPALKDLVLQLEPSVLDLDLYCYEEVPPDDIEEELVSPQQPYAVVASCAYCEKLVRLTVLADHSAIRQLRRLLLRSLNIVCPLCTLQRQ, the “effect of a mutation on the interaction” value is recorded as “decreasing interaction”.

Variants of B3 are the subject of the next experiment. The conditions noted are these: with e2f3_human E2F3, O00716.
Chain of e2f3_human E2F3, O00716 (O00716 whole entry): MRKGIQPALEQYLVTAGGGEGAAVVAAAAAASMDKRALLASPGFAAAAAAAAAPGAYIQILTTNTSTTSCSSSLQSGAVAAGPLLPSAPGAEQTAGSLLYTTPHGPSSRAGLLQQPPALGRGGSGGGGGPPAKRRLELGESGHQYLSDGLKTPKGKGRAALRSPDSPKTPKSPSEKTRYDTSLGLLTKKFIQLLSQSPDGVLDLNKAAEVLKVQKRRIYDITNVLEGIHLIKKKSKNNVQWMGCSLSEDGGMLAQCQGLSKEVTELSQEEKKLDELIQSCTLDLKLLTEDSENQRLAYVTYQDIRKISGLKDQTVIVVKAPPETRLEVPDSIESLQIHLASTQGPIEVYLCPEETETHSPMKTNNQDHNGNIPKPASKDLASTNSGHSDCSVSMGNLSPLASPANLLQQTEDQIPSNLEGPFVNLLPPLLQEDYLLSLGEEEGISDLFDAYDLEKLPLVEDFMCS
Regarding MVGEMPALKDLVLQLEPSVLDLDLYCYEEVPPDDIEEELVSPQQPYAVVASCAYCEKLVELTVLADHSAIRQLEELLLRSLNIVCPLCTLQRQ, the “effect of a mutation on the interaction” value is “decreasing interaction”.

For MVGEMPALKDLVLQLEPSVLDLDLYCYEEVPPDDIEEELVSPQQPYAVVASCAYCEKLVRETVLADHSAIRQLEELLLRSLNIVCPLCTLQRQ, the “effect of a mutation on the interaction” value is listed as “decreasing interaction”.
